Biological target: T1, His-CP110 (mouse, UniProt Q7TSH4 1-1004)
T1 construct: Full-length mouse CP110 cloned by RT-PCR into pFastBac-HT A (His-tag vector); also called purified His-CP110; source: insect Sf9 cells, Bac-to-Bac baculovirus expression system, purified
T1 sequence (looked up): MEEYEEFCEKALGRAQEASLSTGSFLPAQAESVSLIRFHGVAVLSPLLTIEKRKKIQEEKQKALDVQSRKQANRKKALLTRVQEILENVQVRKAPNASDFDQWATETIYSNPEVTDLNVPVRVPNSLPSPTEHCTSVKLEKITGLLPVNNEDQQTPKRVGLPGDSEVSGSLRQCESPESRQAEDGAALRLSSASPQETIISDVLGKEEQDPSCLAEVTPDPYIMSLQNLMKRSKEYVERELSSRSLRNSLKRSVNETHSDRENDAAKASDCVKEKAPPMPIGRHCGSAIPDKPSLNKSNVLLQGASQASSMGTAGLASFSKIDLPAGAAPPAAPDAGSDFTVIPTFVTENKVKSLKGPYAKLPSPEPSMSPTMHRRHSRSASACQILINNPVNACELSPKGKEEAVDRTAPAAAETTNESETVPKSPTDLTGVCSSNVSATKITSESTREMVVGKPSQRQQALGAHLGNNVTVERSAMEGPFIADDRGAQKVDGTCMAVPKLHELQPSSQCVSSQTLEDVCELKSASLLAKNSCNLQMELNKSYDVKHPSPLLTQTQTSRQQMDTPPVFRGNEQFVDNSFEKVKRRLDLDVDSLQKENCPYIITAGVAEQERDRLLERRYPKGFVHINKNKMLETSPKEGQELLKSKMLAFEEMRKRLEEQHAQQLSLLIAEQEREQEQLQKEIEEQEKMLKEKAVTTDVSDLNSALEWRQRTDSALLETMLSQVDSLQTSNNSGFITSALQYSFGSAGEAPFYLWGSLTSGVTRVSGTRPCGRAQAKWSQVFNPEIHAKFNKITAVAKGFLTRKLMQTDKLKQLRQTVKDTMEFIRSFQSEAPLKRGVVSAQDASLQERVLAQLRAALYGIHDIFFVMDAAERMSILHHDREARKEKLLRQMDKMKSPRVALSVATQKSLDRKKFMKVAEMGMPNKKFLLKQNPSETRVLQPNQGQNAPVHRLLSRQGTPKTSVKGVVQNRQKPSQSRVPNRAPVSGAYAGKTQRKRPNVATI
Experiment: pull-down; GST pull-down of two purified proteins, incubated in PBS at 4 °C for 4 h, glutathione-agarose beads 2 h, western blotting
Conditions: both partners purified

binding result: binds
B1: GST-NudCL2 (natural protein, mouse, UniProt Q9CQ48 1-157, looked up)
chain: MSAPFEERSGVVPCGTPWGQWYQTLEEVFIEVQVPPGTRAQDIQCGLQSRHVALAVGGREILKGKLFDSTIADEGTWTLEDRKMVRIVLTKTKRDAANCWTSLLESEYAADPWVQDQMQRKLTLERFQKENPGFDFSGAEISGNYTKGGPDFSNLEK
notes: Full-length mouse NudCL2 amplified from total cDNA by RT-PCR and cloned into pGEX5X-1; also called purified GST-NudCL2; source: Escherichia coli BL21, purified
